Experimental findings from paper PMC10817188 are described below.

Experiment [1] concerns the target KPC-2 carbapenemase (Klebsiella pneumoniae carbapenemase 2) (Klebsiella pneumoniae (endogenous in ATCC BAA-1705)) (UniProt Q9F663).
The target of experiment [2] is β-lactamase obtained from Bacillus cereus 569H (Bacillus cereus 569H).
The target is the same in experiment [3]. The source holds these as a separate data set.

UniProt Q9F663, sequence (Q9F663 25-293): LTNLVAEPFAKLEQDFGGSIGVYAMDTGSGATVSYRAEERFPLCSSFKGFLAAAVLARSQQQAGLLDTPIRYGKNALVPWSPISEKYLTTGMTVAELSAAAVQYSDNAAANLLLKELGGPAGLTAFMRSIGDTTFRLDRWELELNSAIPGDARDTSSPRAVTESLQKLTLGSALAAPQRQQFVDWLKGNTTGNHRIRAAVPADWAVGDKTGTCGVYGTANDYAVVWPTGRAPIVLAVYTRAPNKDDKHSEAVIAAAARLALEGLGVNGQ

B1: truncated BLIP-II (tBLIP-II), β-lactamase inhibitory protein-II without its signal sequence (natural protein)
chain: ATSVVAWGGNNDWGEATVPAEAQSGVDAIAGGYFHGLALKGGKVLGWGANLNGQLTMPAATQSGVDAIAAGNYHSLALKDGEVIAWGGNEDGQTTVPAEARSGVDAIAAGAWASYALKDGKVIAWGDDSDGQTTVPAEAQSGVTALDGGVYTALAVKNGGVIAWGDNYFGQTTVPAEAQSGVDDVAGGIFHSLALKDGKVIAWGDNRYKQTTVPTEALSGVSAIASGEWYSLALKNGKVIAWGSSRTAPSSVQSGVSSIEAGPNAAYALKG
With B1, the MIC of meropenem against K. pneumoniae ATCC BAA-1705 (bla KPC-2 positive) with 10 or 20 μM protein (16 μg/mL without protein; 8 at both concentrations) in experiment [1] stood at 8 µg/mL. The same molecule yielded an IC50 of inhibition of nitrocefin hydrolysis by the β-lactamase (inhibitor 0.0078-2 μM, pre-incubated 15 min at 30°C, absorbance at 490 nM) in experiment [2] of 51.1 nM. In experiment [3], this molecule had a reduction in β-lactamase activity (nitrocefin hydrolysis) at 0.0625 μM inhibitor; constant at higher concentrations up to 2 μM of 70%.
